3 molecules from patent publication EP1473042A1 (City of Hope, dated 2004) can be followed below.

Substitutions are numbered along the chain they refer to.

Sequences and labels used below:
T1: rat FXR (farnesoid X-activated receptor), full-length (rat, UniProt Q62735 1-469)
T1 construct: mature; in vitro translated for the mobility shift assays; also called bile acid nuclear receptor; BAR
T1 sequence (looked up): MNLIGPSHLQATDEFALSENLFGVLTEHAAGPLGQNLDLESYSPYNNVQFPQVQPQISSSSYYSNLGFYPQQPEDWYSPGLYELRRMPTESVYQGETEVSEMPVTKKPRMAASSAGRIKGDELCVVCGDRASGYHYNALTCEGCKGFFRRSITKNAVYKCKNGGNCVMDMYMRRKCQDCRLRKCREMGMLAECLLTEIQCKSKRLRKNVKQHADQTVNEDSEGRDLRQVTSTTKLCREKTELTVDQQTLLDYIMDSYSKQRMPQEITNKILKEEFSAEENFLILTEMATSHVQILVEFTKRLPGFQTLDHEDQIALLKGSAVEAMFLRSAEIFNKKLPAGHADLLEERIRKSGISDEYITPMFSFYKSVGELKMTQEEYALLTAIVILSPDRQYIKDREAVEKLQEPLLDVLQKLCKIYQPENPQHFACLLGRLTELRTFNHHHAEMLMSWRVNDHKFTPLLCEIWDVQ

B1: GST-GRIP1 (glutathione-S-transferase fused to the three receptor interaction domains of mouse GRIP1, Arg 625 - Lys 765) (other, UniProt Q61026 625-765, looked up)
chain: RAEGHSRLHDSKGQTKLLQLLTTKSDQMEPSPLPSSLSDTNKDSTGSLPGPGSTHGTSLKEKHKILHRLLQDSSSPVDLAKLTAEATGKELSQESSSTAPGSEVTVKQEPASPKKKENALLRYLLDKDDTKDIGLPEITPK
notes: range 625-765; Expressed in E. coli, purified on glutathione-sepharose; also called CoA; not shown: glutathione-S-transferase (GST)
B2: RXRm, human RXRα with the single point mutation Asp 322→Pro in the ligand binding domain (receptor, UniProt P19793 1-462, looked up)
chain: MDTKHFLPLDFSTQVNSSLTSPTGRGSMAAPSLHPSLGPGIGSPGQLHSPISTLSSPINGMGPPFSVISSPMGPHSMSVPTTPTLGFSTGSPQLSSPMNPVSSSEDIKPPLGLNGVLKVPAHPSGNMASFTKHICAICGDRSSGKHYGVYSCEGCKGFFKRTVRKDLTYTCRDNKDCLIDKRQRNRCQYCRYQKCLAMGMKREAVQEERQRGKDRNENEVESTSSANEDMPVERILEAELAVEPKTETYVEANMGLNPSSPNDPVTNICQAADKQLFTLVEWAKRIPHFSELPLDDQVILLRAGWNELLIASFSHRSIAVKPGILLATGLHVHRNSAHSAGVGAIFDRVLTELVSKMRDMQMDKTELGCLRAIVLFNPDSKGLSNPAEVEALREKVYASLEAYCKHKYPEQPGRFAKLLLRLPALRSIGLKCLEHLFFFKLIGDTPIDTFLMEMLEAPHQMT
notes: mature; also called mutant RXR; RXR mutant
B3: human RXRα (9-cis retinoic acid receptor), full-length, wild type (receptor, UniProt P19793 1-462, looked up)
chain: B2 chain with P322D
notes: mature; also called wild-type RXR

Experiment [1] addresses B3. Briefly: electrophoretic mobility shift, DR1 probe, increasing LG268. For orientation: Mobility shift assays separate free from complexed probe on a gel.
Experiment [2] addresses GST-GRIP1 (glutathione-S-transferase fused to the three receptor interaction domains of mouse GRIP1, Arg 625 - Lys 765) (mouse) (UniProt Q61026). Briefly: phosphorimager quantitation of the mobility shift autoradiogram (Figure 4).
The target of experiment [3] is T1, rat FXR (farnesoid X-activated …). Briefly: DNA binding as heterodimer (Figure 5 and data not shown).
Experiment [4] concerns the target GST-GRIP1 (glutathione-S-transferase fused to the three receptor interaction domains of mouse GRIP1, Arg 625 - Lys 765) (mouse) (UniProt Q61026). Briefly: electrophoretic mobility shift, DR1 probe, 5 µg GST-GRIP1, LG268 0-1000 nM.
Experiment [5] concerns the target T1, rat FXR (farnesoid X-activated …). Briefly: electrophoretic mobility shift, hsp27 EcRE probe, in vitro translated FXR + RXR.

In the case of B1, the binding result in experiment [1] is “binds”.

In the case of B2, in experiment [2], the fold higher concentration of ligand (LG268) required for recruitment of coactivator, against wild-type RXR was determined as 100 fold. In experiment [3], the binding result is “binds”. For the same molecule, the fold decrease in potency of coactivator recruitment compared to wild type RXR in experiment [4] came out at 100 fold.

Consider B3, for which the binding result in experiment [5] was “binds”.
